From patent publication US11779606B2, “Peptides and combination of peptides of non-canonical origin for use in immunotherapy against different types of cancers” (Immatics Biotechnologies GmbH, priority 2018, dated 2023)

Experiments:
HLA-A*02:01 = HLA-A*02:01 (Homo sapiens, UniProt P04439, D140Y/D185E/D98H/E176V/E277Q/G131W/G231S/I119V/I121R/I166T/I218V/L300P/L318F/N151K/N90K/P208A/P217A/Q86G/Q94H/R138H/R169H/T345S); assay: MHC binding assay (UV-ligand exchange, β2m ELISA); details: MHC class I binding score; peptide exchange yield, binding to HLA-A*02:01, UV-ligand exchange with β2m ELISA
From the text: Candidate peptides for T cell based therapies according to the present invention were further tested for their MHC binding capacity (affinity).
The individual peptide-MHC complexes were produced by UV-ligand exchange, where a UV-sensitive peptide is cleaved upon UV-irradiation and exchanged with the peptide of interest as analyzed. Only peptide candidates that can effectively bind and stabilize the peptide-receptive MHC molecules prevent dissociation of the MHC complexes. To determine the yield of the exchange reaction, an ELISA was performed based on the detection of the light chain (β2m) of stabilized MHC complexes. The assay was performed as generally described in Rodenko et al. (Rodenko et al., 2006).
96 well MAXISorp plates (NUNC) were coated over night with 2 ug/ml streptavidin in PBS at room temperature, washed 4× and blocked for 1h at 37° C. in 2% BSA containing blocking buffer. Refolded HLA-A*02:01/MLA-001 monomers served as standards, covering the range of 15-500 ng/ml. Peptide-MHC monomers of the UV-exchange reaction were diluted 100 fold in blocking buffer. Samples were incubated for 1 h at 37° C., washed four times, incubated with 2 ug/ml HRP conjugated anti-β2m for 1h at 37° C., washed again and detected with TMB solution that is stopped with […]. Absorption was measured at 450 nm. Candidate peptides that show a high exchange yield (preferably higher than 50%, most preferred higher than 75%) are generally preferred for a generation and production of antibodies or fragments thereof, and/or T cell receptors or fragments thereof, as they show sufficient avidity to the MHC molecules and prevent dissociation of the MHC complexes.

CD8+ T cells = assay: In vitro T-cell priming assay (immunogenicity) with artificial APCs loaded with peptide/MHC complexes and anti-CD28; format: cell-based, human; details: CD8+ T cells of healthy HLA-A*02 donors, multimer staining
From the text: In order to obtain information regarding the immunogenicity of the TUMAPs of the present invention, the inventors performed investigations using an in vitro T-cell priming assay based on repeated stimulations of CD8+ T cells with artificial antigen presenting cells (aAPCs) loaded with peptide/MHC complexes and anti-CD28 antibody.
In order to perform in vitro stimulations by artificial antigen presenting cells loaded with peptide-MHC complex (pMHC) and anti-CD28 antibody, the inventors first isolated CD8+ T cells from fresh HLA-A*02 leukapheresis products via positive selection using CD8 microbeads (Miltenyi Biotec, Bergisch-Gladbach, Germany) of healthy donors obtained from the University clinics Mannheim, Germany, after informed consent.
PBMCs and isolated CD8+ lymphocytes were incubated in T-cell medium (TCM) until use consisting of RPMI-Glutamax (Invitrogen, Karlsruhe, Germany) supplemented with 10% heat inactivated human AB serum (PAN-Biotech, Aidenbach, Germany), 100 U/ml Penicillin/100 μg/ml Streptomycin (Cambrex, Cologne, Germany), 1 mM sodium pyruvate (CC Pro, Oberdorla, Germany), 20 μg/ml Gentamycin (Cambrex). 2.5 ng/ml IL-7 (PromoCell, Heidelberg, Germany) and 10 U/ml IL-2 (Novartis Pharma, Nümberg, Germany) were also added to the TCM at this step.
Generation of pMHC/anti-CD28 coated beads, T-cell stimulations and readout was performed in a highly defined in vitro system using four different pMHC molecules per stimulation condition and 8 different pMHC molecules per readout condition.
The purified co-stimulatory mouse IgG2a anti human CD28 Ab 9.3 (Jung et al., 1987) was chemically biotinylated using Sulfo-N-hydroxysuccinimidobiotin as recommended by the manufacturer (Perbio, Bonn, Germany). Beads used were 5.6 μm diameter streptavidin coated polystyrene particles (Bangs Laboratories, Illinois, USA).
800.000 beads/200 μl were coated in 96-well plates in the presence of 4×12.5 ng different biotin-pMHC, washed and 600 ng biotin anti-CD28 were added subsequently in a volume of 200 μl. Stimulations were initiated in 96-well plates by co-incubating […] CD8+ T cells with 2×10^5 washed coated beads in 200 μl TCM supplemented with 5 ng/ml IL-12 (PromoCell) for 3 days at 37° C. Half of the medium was then exchanged by fresh TCM supplemented with 80 U/ml IL-2 and incubating was continued for 4 days at 37° C. This stimulation cycle was performed for a total of three times. For the pMHC multimer readout using 8 different pMHC molecules per condition, a two-dimensional combinatorial coding approach was used as previously described (Andersen et al., 2012) with minor modifications encompassing coupling to 5 different fluorochromes. Finally, multimeric analyses were performed by staining the cells with Live/dead near IR dye (Invitrogen, Karlsruhe, Germany), CD8-FITC antibody clone SK1 (BD, Heidelberg, Germany) and fluorescent pMHC multimers. For analysis, a BD LSRII SORP cytometer equipped with appropriate lasers and filters was used. Peptide specific cells were calculated as percentage of total CD8+ cells. Evaluation of multimeric analysis was done using the FlowJo software (Tree Star, Oreg., USA). In vitro priming of specific multimer+CD8+ lymphocytes was detected by comparing to negative control stimulations.

Substance	Peptide exchange (HLA-A*02:01)	also measured
25 (ISVLNLSAI; listed as Homo sapiens) [compound 25]	++ (≥20% = ++)	
7 (ALWEEVKATSL; listed as Homo sapiens) [compound 7]	++++ (≥75% = ++++)	Wells positive [%] (CD8+ T cells; Table 13b): + (<20% = +)
99 (ALMDGSESRFFV; listed as Homo sapiens) [compound 99]	++++ (≥75% = ++++)	
24 (TLTSLNILL; listed as Homo sapiens) [compound 24]	++++ (≥75% = ++++)	
70 (LLLQIEPAA; listed as Homo sapiens) [compound 70]	++++ (≥75% = ++++)	
44 (WLIPRQLAAA; listed as Homo sapiens) [compound 44]	++++ (≥75% = ++++)	
20 (VLISLPGKV; listed as Homo sapiens) [compound 20]	++ (≥20% = ++)	
69 (LLCPVVLQL; listed as Homo sapiens) [compound 69]	++++ (≥75% = ++++)	
15 (NLVMPLLHI; listed as Homo sapiens) [compound 15]	++ (≥20% = ++)	
54 (GLSPDQVFL; listed as Homo sapiens) [compound 54]	++++ (≥75% = ++++)	
64 (LLLALRLSL; listed as Homo sapiens) [compound 64]	+ (≥10% = +)	
14 (LLIEVSEEL; listed as Homo sapiens) [compound 14]	++++ (≥75% = ++++)	
34 (LLNVEPAGA; listed as Homo sapiens) [compound 34]	++++ (≥75% = ++++)	
32 (VLSVSAVLGA; listed as Homo sapiens) [compound 32]	+++ (≥50 = +++)	
58 (MIISHRALEL; listed as Homo sapiens) [compound 58]	++ (≥20% = ++)	
12 (HLDSMNVSI; listed as Homo sapiens) [compound 12]	++++ (≥75% = ++++)	
61 (VLPWQPLLL; listed as Homo sapiens) [compound 61]	++ (≥20% = ++)	
9 (FLQEGDLISV; listed as Homo sapiens) [compound 9]	++++ (≥75% = ++++)	
63 (LSFKRSLSI; listed as Homo sapiens) [compound 63]	++ (≥20% = ++)	
73 (STTIINLIL; listed as Homo sapiens) [compound 73]	++ (≥20% = ++)	
8 (ILQSLVPAA; listed as Homo sapiens) [compound 8]	++++ (≥75% = ++++)	
5 (LVWEVVESV; listed as Homo sapiens) [compound 5]	++++ (≥75% = ++++)	
103 (SLVSYLDKV; listed as Homo sapiens) [compound 103]		Wells positive [%] (CD8+ T cells; Table 13a): + (<20% = +)
39 (YIYEDEVRL; listed as Homo sapiens) [compound 39]	++++ (≥75% = ++++)	
98 (SLMEVTHDL; listed as Homo sapiens) [compound 98]	++++ (≥75% = ++++)	
11 (ALLPHAPEAV; listed as Homo sapiens) [compound 11]	+++ (≥50 = +++)	
57 (YVLMTSLLL; listed as Homo sapiens) [compound 57]	++++ (≥75% = ++++)	

Substance	Peptide exchange (HLA-A*02:01)	also measured
102 (GLDPTQFRV; listed as Homo sapiens) [compound 102]		Wells positive [%] (CD8+ T cells; Table 13a): ++++ (>=70% = ++++)
42 (WITPVIPAL; listed as Homo sapiens) [compound 42]	++++ (≥75% = ++++)	
45 (ALYHQSPLL; listed as Homo sapiens) [compound 45]	++++ (≥75% = ++++)	
56 (IITNLIVNI; listed as Homo sapiens) [compound 56]	+++ (≥50 = +++)	
22 (SLYDVPVGA; listed as Homo sapiens) [compound 22]	++++ (≥75% = ++++)	
60 (LLLATLENL; listed as Homo sapiens) [compound 60]	++++ (≥75% = ++++)	
41 (LMASEGIWESSL; listed as Homo sapiens) [compound 41]	+++ (≥50 = +++)	
23 (GLEVLDALL; listed as Homo sapiens) [compound 23]	++ (≥20% = ++)	
53 (TISISLSSV; listed as Homo sapiens) [compound 53]	++++ (≥75% = ++++)	
59 (LAASTTFLGV; listed as Homo sapiens) [compound 59]	++++ (≥75% = ++++)	
66 (ILNELLNSI; listed as Homo sapiens) [compound 66]	++++ (≥75% = ++++)	
55 (MVQQEKLFV; listed as Homo sapiens) [compound 55]	+++ (≥50 = +++)	
35 (VLLNSNYPV; listed as Homo sapiens) [compound 35]	++++ (≥75% = ++++)	
52 (LAFVSHVLI; listed as Homo sapiens) [compound 52]	++ (≥20% = ++)	
17 (VLWDLRPSSLI; listed as Homo sapiens) [compound 17]	++++ (≥75% = ++++)	
28 (SQLEKPETA; listed as Homo sapiens) [compound 28]	+++ (≥50 = +++)	
10 (SLLDKLSGI; listed as Homo sapiens) [compound 10]	++++ (≥75% = ++++)	
16 (ALLDAEQSPVAL; listed as Homo sapiens) [compound 16]	++++ (≥75% = ++++)	
67 (ALKELMGPA; listed as Homo sapiens) [compound 67]	++ (≥20% = ++)	
100 (SLGPPPVGV; listed as Homo sapiens) [compound 100]	++++ (≥75% = ++++)	
71 (WLMPVMPAL; listed as Homo sapiens) [compound 71]	++++ (≥75% = ++++)	
43 (AIWSTILIA; listed as Homo sapiens) [compound 43]	++ (≥20% = ++)	
62 (SLLGKPGLTI; listed as Homo sapiens) [compound 62]	++++ (≥75% = ++++)	
21 (FVFISPSFL; listed as Homo sapiens) [compound 21]	+++ (≥50 = +++)	
27 (IAAGVPNTDA; listed as Homo sapiens) [compound 27]	++ (≥20% = ++)	
97 (GLIDDKGTIKL; listed as Homo sapiens) [compound 97]	++++ (≥75% = ++++)	
30 (LLRLTLLPL; listed as Homo sapiens) [compound 30]	++ (≥20% = ++)	
